Measurements from US20210388087A1 (Chugai, published 2021).
Where a chain is given by its changes, count along the chain named. Numbers in names are those of the source. Each block holds one binder with its values, some of them ahead of it.

Molecular target: T1, Human CD137 ECD (human)
T1 construct: also called 4-1BB
Assay: single mutant vs template dBBDu183H

T1 sequence (chain, as listed by the source limits assumed): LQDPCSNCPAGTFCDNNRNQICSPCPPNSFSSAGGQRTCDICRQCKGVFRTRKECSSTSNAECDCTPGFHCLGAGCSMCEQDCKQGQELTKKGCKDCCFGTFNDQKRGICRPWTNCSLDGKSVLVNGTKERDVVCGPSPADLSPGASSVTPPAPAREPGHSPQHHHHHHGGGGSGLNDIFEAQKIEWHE

fold change of affinity: 1.5 fold
B1: H183/L072 VH T28R (antibody, name in Kabat numbering, V domains shown)
VH: QVQLVESGGGLVQPGRSLRLSCAASGFRFSNAWMHWVRQAPGKGLEWVAQIKDKGNAYAAYYAPSVKGRFTISRDDSKNSIYLQMNSLKTEDTAVYYCHYVHYASASTVLPAFGVDAWGQGTTVTVSS
VL: DIVMTQSPLSLPVTPGEPASISCQASQELVHMNRNTYLHWYQQKPGQAPRLLIYKVSNRFPGVPDRFSGSGSGTDFTLKISRVEAEDVGVYYCAQGTSVPFTFGQGTKLEIK

fold change of affinity: 0.4 fold
B2: H183/L072 VH Y55M (antibody, name in Kabat numbering, V domains shown)
VH: B1 VH with R28T, Y58M
VL: B1 VL

fold change of affinity: 0.4 fold
B3: H183/L072 VH Y55H (antibody, name in Kabat numbering, V domains shown)
VH: B1 VH with R28T, Y58H
VL: B1 VL

fold change of affinity: 3.3 fold
B4: H183/L072 VH V100cL (antibody, name in Kabat numbering, V domains shown)
VH: B1 VH with R28T, V109L
VL: B1 VL

fold change of affinity: 0 fold
B5: H183/L072 VH W33L (antibody, name in Kabat numbering, V domains shown)
VH: B1 VH with R28T, W33L
VL: B1 VL

fold change of affinity: 2.5 fold
B6: H183/L072 VH V100cI (antibody, name in Kabat numbering, V domains shown)
VH: B1 VH with R28T, V109I
VL: B1 VL

fold change of affinity: 0.1 fold
B7: H183/L072 VH Y58D (antibody, name in Kabat numbering, V domains shown)
VH: B1 VH with R28T, Y61D
VL: B1 VL

fold change of affinity: 0.8 fold
B8: H183/L072 VH V63M (antibody, name in Kabat numbering, V domains shown)
VH: B1 VH with R28T, V66M
VL: B1 VL

fold change of affinity: 1.1 fold
B9: H183/L072 VH V100iI (antibody, name in Kabat numbering, V domains shown)
VH: B1 VH with R28T, V115I
VL: B1 VL

fold change of affinity: 0.4 fold
B10: H183/L072 VH Y55D (antibody, name in Kabat numbering, V domains shown)
VH: B1 VH with R28T, Y58D
VL: B1 VL

fold change of affinity: 1.3 fold
B11: H183/L072 VH V100cM (antibody, name in Kabat numbering, V domains shown)
VH: B1 VH with R28T, V109M
VL: B1 VL

fold change of affinity: 0.9 fold
B12: H183/L072 VH V63L (antibody, name in Kabat numbering, V domains shown)
VH: B1 VH with R28T, V66L
VL: B1 VL

fold change of affinity: 0 fold
B13: H183/L072 VH W33Y (antibody, name in Kabat numbering, V domains shown)
VH: B1 VH with R28T, W33Y
VL: B1 VL

fold change of affinity: 0.3 fold
B14: H183/L072 VH V95I (antibody, name in Kabat numbering, V domains shown)
VH: B1 VH with R28T, V101I
VL: B1 VL

fold change of affinity: 0.4 fold
B15: H183/L072 VH V100cA (antibody, name in Kabat numbering, V domains shown)
VH: B1 VH with R28T, V109A
VL: B1 VL

fold change of affinity: 0.3 fold
B16: H183/L072 VH Y55L (antibody, name in Kabat numbering, V domains shown)
VH: B1 VH with R28T, Y58L
VL: B1 VL

fold change of affinity: 0 fold
B17: H183/L072 VH V95P (antibody, name in Kabat numbering, V domains shown)
VH: B1 VH with R28T, V101P
VL: B1 VL

fold change of affinity: 0.7 fold
B18: H183/L072 VH Y55N (antibody, name in Kabat numbering, V domains shown)
VH: B1 VH with R28T, Y58N
VL: B1 VL

fold change of affinity: 0.2 fold
B19: H183/L072 VH Y58I (antibody, name in Kabat numbering, V domains shown)
VH: B1 VH with R28T, Y61I
VL: B1 VL

fold change of affinity: 0.2 fold
B20: H183/L072 VH Y58A (antibody, name in Kabat numbering, V domains shown)
VH: B1 VH with R28T, Y61A
VL: B1 VL

fold change of affinity: 0.5 fold
B21: H183/L072 VH T100bM (antibody, name in Kabat numbering, V domains shown)
VH: B1 VH with R28T, T108M
VL: B1 VL

fold change of affinity: 0 fold
B22: H183/L072 VH T100bI (antibody, name in Kabat numbering, V domains shown)
VH: B1 VH with R28T, T108I
VL: B1 VL

fold change of affinity: 0.9 fold
B23: H183/L072 VH V63A (antibody, name in Kabat numbering, V domains shown)
VH: B1 VH with R28T, V66A
VL: B1 VL

fold change of affinity: 0.3 fold
B24: H183/L072 VH Y58E (antibody, name in Kabat numbering, V domains shown)
VH: B1 VH with R28T, Y61E
VL: B1 VL

fold change of affinity: 0 fold
B25: H183/L072 VH V100iA (antibody, name in Kabat numbering, V domains shown)
VH: B1 VH with R28T, V115A
VL: B1 VL

fold change of affinity: 0.3 fold
B26: H183/L072 VH Y55A (antibody, name in Kabat numbering, V domains shown)
VH: B1 VH with R28T, Y58A
VL: B1 VL

fold change of affinity: 0.1 fold
B27: H183/L072 VH V100iL (antibody, name in Kabat numbering, V domains shown)
VH: B1 VH with R28T, V115L
VL: B1 VL

fold change of affinity: 0 fold
B28: H183/L072 VH V95A (antibody, name in Kabat numbering, V domains shown)
VH: B1 VH with R28T, V101A
VL: B1 VL

fold change of affinity: 0.2 fold
B29: H183/L072 VH Y55Q (antibody, name in Kabat numbering, V domains shown)
VH: B1 VH with R28T, Y58Q
VL: B1 VL

fold change of affinity: 0.4 fold
B30: H183/L072 VH Y55E (antibody, name in Kabat numbering, V domains shown)
VH: B1 VH with R28T, Y58E
VL: B1 VL

fold change of affinity: 1.1 fold
B31: H183/L072 VH V63I (antibody, name in Kabat numbering, V domains shown)
VH: B1 VH with R28T, V66I
VL: B1 VL

fold change of affinity: 0 fold
B32: H183/L072 VH V95M (antibody, name in Kabat numbering, V domains shown)
VH: B1 VH with R28T, V101M
VL: B1 VL

fold change of affinity: 0.3 fold
B33: H183/L072 VH Y58H (antibody, name in Kabat numbering, V domains shown)
VH: B1 VH with R28T, Y61H
VL: B1 VL

fold change of affinity: 0.2 fold
B34: H183/L072 VH Y55K (antibody, name in Kabat numbering, V domains shown)
VH: B1 VH with R28T, Y58K
VL: B1 VL

fold change of affinity: 0.2 fold
B35: H183/L072 VH Y58G (antibody, name in Kabat numbering, V domains shown)
VH: B1 VH with R28T, Y61G
VL: B1 VL

fold change of affinity: 0.3 fold
B36: H183/L072 VH Y55G (antibody, name in Kabat numbering, V domains shown)
VH: B1 VH with R28T, Y58G
VL: B1 VL

fold change of affinity: 0.9 fold
B37: H183/L072 VH Y58F (antibody, name in Kabat numbering, V domains shown)
VH: B1 VH with R28T, Y61F
VL: B1 VL

fold change of affinity: 0.3 fold
B38: H183/L072 VH Y58K (antibody, name in Kabat numbering, V domains shown)
VH: B1 VH with R28T, Y61K
VL: B1 VL

fold change of affinity: 1.1 fold
B39: H183/L072 VH T28Y (antibody, name in Kabat numbering, V domains shown)
VH: B1 VH with R28Y
VL: B1 VL

fold change of affinity: 0.8 fold
B40: H183/L072 VH T28W (antibody, name in Kabat numbering, V domains shown)
VH: B1 VH with R28W
VL: B1 VL

fold change of affinity: 1 fold
B41: H183/L072 VH V63P (antibody, name in Kabat numbering, V domains shown)
VH: B1 VH with R28T, V66P
VL: B1 VL

fold change of affinity: 0 fold
B42: H183/L072 VH T100bA (antibody, name in Kabat numbering, V domains shown)
VH: B1 VH with R28T, T108A
VL: B1 VL

fold change of affinity: 0.2 fold
B43: H183/L072 VH V95L (antibody, name in Kabat numbering, V domains shown)
VH: B1 VH with R28T, V101L
VL: B1 VL

fold change of affinity: 0.1 fold
B44: H183/L072 VH T100bL (antibody, name in Kabat numbering, V domains shown)
VH: B1 VH with R28T, T108L
VL: B1 VL

fold change of affinity: 0 fold
B45: H183/L072 VH V100iM (antibody, name in Kabat numbering, V domains shown)
VH: B1 VH with R28T, V115M
VL: B1 VL

fold change of affinity: 1.2 fold
B46: H183/L072 VH T28V (antibody, name in Kabat numbering, V domains shown)
VH: B1 VH with R28V
VL: B1 VL

fold change of affinity: 0.5 fold
B47: H183/L072 VH Y55F (antibody, name in Kabat numbering, V domains shown)
VH: B1 VH with R28T, Y58F
VL: B1 VL
